The values that follow come from article PMC8115288 (2021).

To fix the notation:
B1: GST-CTD (C-terminal domain of HIV-1 integrase, aa 201-288) [HIV-1 (Hx3B)] / His6-SUMO-INI1_(183-304) [not stated] (parent complex)
chain 1: VDIIATDIQTKELQKQITKIQNFRVYYRDSRNPLWKGPAKLLWKGEGAVVIQDNSDIKVVPRRKAKIIRDYGKQMAGDDCVASRQDED
chain 2: PEVLVPIRLDMEIDGQKLRDAFTWNMNEKLMTPEMFSEILCDDLDLNPLTFVPAIASAIRQQIESYPTDSILEDQSDQRVIIKLNIHVGNISLVDQFEWDMSEKENSPEKFALKLCSELGLG

In the experiment the parent is B1. The experiment is described as follows: Alpha assay; low salt conditions; parent: 100; read off a plot.
Take chain 1 K44A: the percent of parent was ~15 % of WT.
As for chain 1 W35F, the percent of parent is ~90 % of WT.
With chain 1 W35E the figure was ~2 % of WT; with chain 1 W35K, ~4 % of WT.
With chain 1 W35A the figure was ~17 % of WT; with chain 1 K64A, chain 1 K66A, ~2 % of WT.
